Data: patent US8093046B2, “CVN-12p1: a recombinant allosteric lectin antagonist of HIV-1 envelope gp120 interactions” (Philadelphia Health and Education Corporation d/b/c Drexel …, priority 2006, dated 2012)

Tests used:
HIV-1 BaL [1] = assay: Viral synergy study, HIV-1 BaL replication in PM-1 cells (gp120 ELISA); type: cell-based; conditions: 12p1 16-31 μM
Description: The curves are also shown for the dose response expected if the effects were simply additive.
Viral replication was determined by gp120 ELISA after a seven day incubation.
Dilutions and cells were in RPMI supplemented with 10% fetal calf serum, pen, strep and glutamine. Cells were incubated for 7 days and viral replication determined by gp120 ELISA. Each condition was performed in sextuplet and the mean used to calculate IC50 values. Analysis of combined effects was also carried out using the median effect principle developed by Chou and Talalay^39,40, and using the computer program CalcuSyn (BioSoft).

HIV-1YU2 gp120 = HIV-1YU2 gp120 (Human immunodeficiency virus type 1 group M subtype B, UniProt P35961); conditions: at 300 nM, about 250 RUs gp120 immobilized
Description: Approximately 250 RUs of either YU2 gp120 or the non-specific control antibody 2B6R were immobilized to a CM5 dextran chip by amine coupling. […] Signals from the reference 2B6R flow cell were used to correct for non-specific interactions and bulk effects (FIGS. 4A, B).
All surface plasmon resonance studies were performed on a Biacore 3000 (Biacore Inc., Uppsala, Sweden). CM5 dextran chip was derivatized by amine coupling with 250 RUs of YU2 gp120 or 2B6R (anti-IL5 receptor βchain) IgG as a control surface. […] Surfaces were regenerated with multiple short pulses of 10 mM glycine HCl, pH 1.7.

[2] = system: gp120s from a variety of strains of HIV-1 of diverse clades and tropisms; assay: ELISA binding to gp120 of a variety of clades and tropisms; conditions: 50 nM, 100 ng gp120
Excerpt: Bars represent triplicate determination after the subtraction of non-specific binding to BSA. Error bars indicate one standard deviation.
We therefore tested the ability of the chimera to bind to the gp120s from a variety of strains of HIV-1 of diverse clades and tropisms.

YU2 gp120 / mAb 2G12 = YU2 gp120 / mAb 2G12 (Human immunodeficiency virus type 1 group M subtype B, UniProt P35961); conditions: ELISA, 50 μg/ml 2G12
Excerpt: Monomeric HIV-1YU2 gp120 was adsorbed onto ELISA plates overnight prior to blocking with 1% BSA.
This antibody recognizes the conformationally-flexible, CD4-unliganded form of gp120^53.

YU2 gp120 / mAb 17b [3] = biological target: T1, YU2 gp120 / mAb 17b (Human immunodeficiency virus type 1 group M subtype B, UniProt P35961); conditions: ELISA, 2 μg/ml 17b
YU2 gp120 / mAb F105 = biological target: T2, YU2 gp120 / mAb F105 (Human immunodeficiency virus type 1 group M subtype B, UniProt P35961); conditions: from literature; cited from earlier work
T2 construct: made in house; host or cells: gp120: Drosophila S2 cells

SHIV89.6P = conditions: cited from earlier work
[4] = system: SIV/HIV-1 virus SHIV89.6P; conditions: gel formulations applied rectally, male macaques; cited from earlier work
HIV-1 BaL [5] = conditions: recombinant CVN; cited from earlier work
YU2 gp120 = YU2 gp120 (Human immunodeficiency virus type 1 group M subtype B, UniProt P35961); conditions: read-out: Equilibrium dissociation constant KD for binding to YU2; cited from earlier work
[6] = biological target: gp120 of HIV-1 JRFL and HIV-1 89.6; conditions: cited from earlier work
YU2 gp120 / mAb 17b [7] = biological target: T1, YU2 gp120 / mAb 17b; conditions: from literature; cited from earlier work

Molecule | Inhibitory effect on viral replication alone (HIV-1 BaL [1]) | Biosensor signal on immobilized YU2 gp120 (HIV-1YU2 gp120) [RU] | Binding to gp120s of diverse strains in ELISA [2] | Competition of gp120 binding to 2G12 antibody (YU2 gp120 / mAb 2G12) | Effect on interaction between 17b and gp120 (YU2 gp120 / mAb 17b [3]) | Effect on F105 binding to gp120 (YU2 gp120 / mAb F105) | Clinically adverse effects in in vivo assays (SHIV89.6P; macaques, gel) | CVN treated macaques not infected (SHIV89.6P; vaginal gel, SHIV89.6P challenge, controls 8 of 8 infected) | Protection against rectal challenge [4] | Cytotoxic effects in ectocervical explants (HIV-1 BaL [5]) | Infection of human ectocervical explants (HIV-1 BaL [5]) | Kd (YU2 gp120) [µM] | Affinity (KD) of interaction with gp120 [6] | Effect on 17b-gp120 interaction (YU2 gp120 / mAb 17b [7])
RINNIPWSEAMM [12p1] | only small inhibitory effect | – | – | – | – | – | – | – | – | – | – | – | – | –
CVN: 11 kDa protein originally isolated from the cyanobacterium Nostoc ellipsosporum, binds high mannose oligosaccharides of gp120 (protein) LGKFSQTCYNSAIQGSVLTSTCERTNGGYNTSSIDLNSVIENVDGSLKWQPSNFIETCRNTQLAGSSELAAECKTRAQQFVSTKINLDDHIANIDGTLKYEHHHHHH | – | 95 | behaved equivalently with all strains tested | show the expected competition | neither CVN nor L5-S12p1 had any effect | minimal effect | no clinically adverse effects | 15 of 18 | protected against challenge | no cytotoxic effects | blocked HIV-1 BaL infection | 0.011 | in the nM KD range | cannot inhibit this interaction
